Measurements published in paper PMC4197845.
Like-named read-outs stand apart in the source and are kept apart here.

Assays:
[1] = biological target: epidermal growth factor receptor on live cells (human (endogenous in UM-SCC-14C and A431)) (UniProt P00533); test: radioligand binding
[2] = biological target: epidermal growth factor receptor on live cells (human (endogenous in UM-SCC-14C and A431)) (UniProt P00533); test: radioligand binding; remark: listed apart in the source

Kd [1]: 7.5 nM
Kd [2]: 7.1 nM
Substance: bi-paratopic nanobody 9G8-7D12 (bispecific antibody)
